Results as given in paper PMC2572732, “Structural Coupling of SH2-Kinase Domains Links Fes and Abl Substrate Recognition and Kinase Activation” (Cell, 2008).

Each molecule was assayed on Fes; GST-cortactin (residues 382–550) (assay: In vivo kinase assay: Fes autophosphorylation and GST-cortactin phosphorylation in transfected HEK293T cells). Details: full-length Flag-Fes, HEK293T, 24 hr, western blot anti-pTyr; in words.
Format: cell-based, human
Description: To pursue the relevance of the observed interdomain interactions, we studied the effects of mutating residues in the SH2-kinase interface on human Fes activity. To this end, we monitored Fes autophosphorylation and transphosphorylation activity in transfected cells, using cortactin (residues 382–550) fused to GST as an exogenous substrate (Figures 2A and 2B). In an effort to perturb the close interaction between the SH2 and kinase domains, we mutated the conserved glycine residue (G463) located in the tightly packed interface between the SH2 N terminus and the kinase β4/β5 loop to valine (mutant G/V). Introducing this bulky side chain would be expected to sterically hinder alignment of the SH2 and kinase domains, resulting in an altered domain packing. Wild-type (WT) and G/V mutant full-length human Fes, each with an N-terminal Flag epitope, were expressed in HEK293T cells together with GST-cortactin.
Wild-type p130^Gag-Fps and the RX15m and AX9m mutants ([Stone et al., 1984]) were subcloned into the vector pRK5-myc ([Winberg et al., 2000]). Full-length human Fes was cloned into the vector pCMV7.1-3xFlag (Sigma, St. Louis, MO). Site-directed mutagenesis was performed using the QuickChange® II XL Kit (Stratagene, La Jolla, CA) following the manufacturer's directions. A GST-tagged C-terminal fragment of human cortactin (residues 382–550, accession Q14247) was prepared by PCR from cDNA (accession BC008799) and cloned into pEBG vector (gift from C. Duckett, University of Michigan Medical School, Ann Arbor).
HEK293T cells were maintained in Dulbecco's modified Eagle's medium supplemented with 10% (vol/vol) fetal bovine serum, 100 units/ml penicillin G sodium, and 100 μg/ml streptomycin and incubated at 37°C, 5% CO2.
Flag-tagged Fes or Myc-tagged p130^Gag-Fps and mutants thereof were cotransfected with GST-cortactin into HEK293T cells. After 24 hr, cells were lysed with NP-40 cell lysis buffer (50 mM Tris-HCl [pH 7.5], 150 mM NaCl, 1% NP-40, and 1 mM EDTA) that contained 1 mM phenylmethylsulfonyl fluoride, 10 μg/ml leupeptin, 10 μg/ml aprotinin, and 10 μg/ml pepstatin A. Cell lysates, normalized for protein concentration, were used in anti-Flag M2 antibody-agarose (Sigma) or anti-Myc antibody immunoprecipitations or glutathione sepharose affinity precipitations. Associated proteins were resolved using SDS-PAGE and analyzed by western blotting using anti-Flag M2 (Sigma), anti-c-Myc 9E10 (Santa Cruz), HRP-conjugated anti-GST (Santa Cruz), or anti-pTyr 4G10 (Upstate) antibodies.

Molecule	Fes kinase activity (autophosphorylation and cortactin phosphorylation)
EE/KK: Fes double mutant, E469 and E472 to lysine (protein) WYHGAIPRAKVAKLLVHSGDFLVRESQGKQEYVLSVLWDGLPRHFIIQSLDNLYRLEGEGFPSIPLLIDHLLSTQQPLTKKSGVVLHRAV	strongly reduced Fes kinase activity
WT: Wild-type full-length human Fes with N-terminal Flag epitope (protein, UniProt P07332 1-822, looked up, full-length N-terminal Flag tag) MGFSSELCSPQGHGVLQQMQEAELRLLEGMRKWMAQRVKSDREYAGLLHHMSLQDSGGQSRAISPDSPISQSWAEITSQTEGLSRLLRQHAEDLNSGPLSKLSLLIRERQQLRKTYSEQWQQLQQELTKTHSQDIEKLKSQYRALARDSAQAKRKYQEASKDKDRDKAKDKYVRSLWKLFAHHNRYVLGVRAAQLHHQHHHQLLLPGLLRSLQDLHEEMACILKEILQEYLEISSLVQDEVVAIHREMAAAAARIQPEAEYQGFLRQYGSAPDVPPCVTFDESLLEEGEPLEPGELQLNELTVESVQHTLTSVTDELAVATEMVFRRQEMVTQLQQELRNEEENTHPRERVQLLGKRQVLQEALQGLQVALCSQAKLQAQQELLQTKLEHLGPGEPPPVLLLQDDRHSTSSSEQEREGGRTPTLEILKSHISGIFRPKFSLPPPLQLIPEVQKPLHEQLWYHGAIPRAEVAELLVHSGDFLVRESQGKQEYVLSVLWDGLPRHFIIQSLDNLYRLEGEGFPSIPLLIDHLLSTQQPLTKKSGVVLHRAVPKDKWVLNHEDLVLGEQIGRGNFGEVFSGRLRADNTLVAVKSCRETLPPDLKAKFLQEARILKQYSHPNIVRLIGVCTQKQPIYIVMELVQGGDFLTFLRTEGARLRVKTLLQMVGDAAAGMEYLESKCCIHRDLAARNCLVTEKNVLKISDFGMSREEADGVYAASGGLRQVPVKWTAPEALNYGRYSSESDVWSFGILLWETFSLGASPYPNLSNQQTREFVEKGGRLPCPELCPDAVFRLMEQCWAYEPGQRPSFSTIYQELQSIRKRHR	active
E472K: Fes E472K mutant (protein, UniProt P07332 1-822, looked up, variant E472K) Tyrosine-protein kinase …: MGFSSELCSPQGHGVLQQMQEAELRLLEGMRKWMAQRVKSDREYAGLLHHMSLQDSGGQSRAISPDSPISQSWAEITSQTEGLSRLLRQHAEDLNSGPLSKLSLLIRERQQLRKTYSEQWQQLQQELTKTHSQDIEKLKSQYRALARDSAQAKRKYQEASKDKDRDKAKDKYVRSLWKLFAHHNRYVLGVRAAQLHHQHHHQLLLPGLLRSLQDLHEEMACILKEILQEYLEISSLVQDEVVAIHREMAAAAARIQPEAEYQGFLRQYGSAPDVPPCVTFDESLLEEGEPLEPGELQLNELTVESVQHTLTSVTDELAVATEMVFRRQEMVTQLQQELRNEEENTHPRERVQLLGKRQVLQEALQGLQVALCSQAKLQAQQELLQTKLEHLGPGEPPPVLLLQDDRHSTSSSEQEREGGRTPTLEILKSHISGIFRPKFSLPPPLQLIPEVQKPLHEQLWYHGAIPRAEVAKLLVHSGDFLVRESQGKQEYVLSVLWDGLPRHFIIQSLDNLYRLEGEGFPSIPLLIDHLLSTQQPLTKKSGVVLHRAVPKDKWVLNHEDLVLGEQIGRGNFGEVFSGRLRADNTLVAVKSCRETLPPDLKAKFLQEARILKQYSHPNIVRLIGVCTQKQPIYIVMELVQGGDFLTFLRTEGARLRVKTLLQMVGDAAAGMEYLESKCCIHRDLAARNCLVTEKNVLKISDFGMSREEADGVYAASGGLRQVPVKWTAPEALNYGRYSSESDVWSFGILLWETFSLGASPYPNLSNQQTREFVEKGGRLPCPELCPDAVFRLMEQCWAYEPGQRPSFSTIYQELQSIRKRHR	not significantly impaired
G/V: Fes mutant, conserved glycine residue (G463) mutated to valine (protein, UniProt P07332 1-822, looked up, variant G463V) Tyrosine-protein kinase …: MGFSSELCSPQGHGVLQQMQEAELRLLEGMRKWMAQRVKSDREYAGLLHHMSLQDSGGQSRAISPDSPISQSWAEITSQTEGLSRLLRQHAEDLNSGPLSKLSLLIRERQQLRKTYSEQWQQLQQELTKTHSQDIEKLKSQYRALARDSAQAKRKYQEASKDKDRDKAKDKYVRSLWKLFAHHNRYVLGVRAAQLHHQHHHQLLLPGLLRSLQDLHEEMACILKEILQEYLEISSLVQDEVVAIHREMAAAAARIQPEAEYQGFLRQYGSAPDVPPCVTFDESLLEEGEPLEPGELQLNELTVESVQHTLTSVTDELAVATEMVFRRQEMVTQLQQELRNEEENTHPRERVQLLGKRQVLQEALQGLQVALCSQAKLQAQQELLQTKLEHLGPGEPPPVLLLQDDRHSTSSSEQEREGGRTPTLEILKSHISGIFRPKFSLPPPLQLIPEVQKPLHEQLWYHVAIPRAEVAELLVHSGDFLVRESQGKQEYVLSVLWDGLPRHFIIQSLDNLYRLEGEGFPSIPLLIDHLLSTQQPLTKKSGVVLHRAVPKDKWVLNHEDLVLGEQIGRGNFGEVFSGRLRADNTLVAVKSCRETLPPDLKAKFLQEARILKQYSHPNIVRLIGVCTQKQPIYIVMELVQGGDFLTFLRTEGARLRVKTLLQMVGDAAAGMEYLESKCCIHRDLAARNCLVTEKNVLKISDFGMSREEADGVYAASGGLRQVPVKWTAPEALNYGRYSSESDVWSFGILLWETFSLGASPYPNLSNQQTREFVEKGGRLPCPELCPDAVFRLMEQCWAYEPGQRPSFSTIYQELQSIRKRHR	completely inactive
E469K: Fes E469K mutant (protein, UniProt P07332 1-822, looked up, variant E469K) Tyrosine-protein kinase …: MGFSSELCSPQGHGVLQQMQEAELRLLEGMRKWMAQRVKSDREYAGLLHHMSLQDSGGQSRAISPDSPISQSWAEITSQTEGLSRLLRQHAEDLNSGPLSKLSLLIRERQQLRKTYSEQWQQLQQELTKTHSQDIEKLKSQYRALARDSAQAKRKYQEASKDKDRDKAKDKYVRSLWKLFAHHNRYVLGVRAAQLHHQHHHQLLLPGLLRSLQDLHEEMACILKEILQEYLEISSLVQDEVVAIHREMAAAAARIQPEAEYQGFLRQYGSAPDVPPCVTFDESLLEEGEPLEPGELQLNELTVESVQHTLTSVTDELAVATEMVFRRQEMVTQLQQELRNEEENTHPRERVQLLGKRQVLQEALQGLQVALCSQAKLQAQQELLQTKLEHLGPGEPPPVLLLQDDRHSTSSSEQEREGGRTPTLEILKSHISGIFRPKFSLPPPLQLIPEVQKPLHEQLWYHGAIPRAKVAELLVHSGDFLVRESQGKQEYVLSVLWDGLPRHFIIQSLDNLYRLEGEGFPSIPLLIDHLLSTQQPLTKKSGVVLHRAVPKDKWVLNHEDLVLGEQIGRGNFGEVFSGRLRADNTLVAVKSCRETLPPDLKAKFLQEARILKQYSHPNIVRLIGVCTQKQPIYIVMELVQGGDFLTFLRTEGARLRVKTLLQMVGDAAAGMEYLESKCCIHRDLAARNCLVTEKNVLKISDFGMSREEADGVYAASGGLRQVPVKWTAPEALNYGRYSSESDVWSFGILLWETFSLGASPYPNLSNQQTREFVEKGGRLPCPELCPDAVFRLMEQCWAYEPGQRPSFSTIYQELQSIRKRHR	reduced tyrosine kinase activity
EER/KKE: Fes triple mutant: EE/KK plus R609 in αC helix to glutamate (protein, UniProt P07332 1-822, looked up, variant E469K E472K R609E) Tyrosine-protein kinase …: MGFSSELCSPQGHGVLQQMQEAELRLLEGMRKWMAQRVKSDREYAGLLHHMSLQDSGGQSRAISPDSPISQSWAEITSQTEGLSRLLRQHAEDLNSGPLSKLSLLIRERQQLRKTYSEQWQQLQQELTKTHSQDIEKLKSQYRALARDSAQAKRKYQEASKDKDRDKAKDKYVRSLWKLFAHHNRYVLGVRAAQLHHQHHHQLLLPGLLRSLQDLHEEMACILKEILQEYLEISSLVQDEVVAIHREMAAAAARIQPEAEYQGFLRQYGSAPDVPPCVTFDESLLEEGEPLEPGELQLNELTVESVQHTLTSVTDELAVATEMVFRRQEMVTQLQQELRNEEENTHPRERVQLLGKRQVLQEALQGLQVALCSQAKLQAQQELLQTKLEHLGPGEPPPVLLLQDDRHSTSSSEQEREGGRTPTLEILKSHISGIFRPKFSLPPPLQLIPEVQKPLHEQLWYHGAIPRAKVAKLLVHSGDFLVRESQGKQEYVLSVLWDGLPRHFIIQSLDNLYRLEGEGFPSIPLLIDHLLSTQQPLTKKSGVVLHRAVPKDKWVLNHEDLVLGEQIGRGNFGEVFSGRLRADNTLVAVKSCRETLPPDLKAKFLQEAEILKQYSHPNIVRLIGVCTQKQPIYIVMELVQGGDFLTFLRTEGARLRVKTLLQMVGDAAAGMEYLESKCCIHRDLAARNCLVTEKNVLKISDFGMSREEADGVYAASGGLRQVPVKWTAPEALNYGRYSSESDVWSFGILLWETFSLGASPYPNLSNQQTREFVEKGGRLPCPELCPDAVFRLMEQCWAYEPGQRPSFSTIYQELQSIRKRHR	regained kinase activity to a level approaching wild-type
